Here are results for 1 substance from patent CN117843776A.

The target in this assay is IL-17RA and IL-17RC co-expressed on 293F-IL-17RA-IL-17Rc-ACT1-NFκB-Luc reporter cells (Homo sapiens (Human)) (UniProt Q96F46). Put plainly: FACS, IL-17A recombinant protein on 293F-IL-17RA-IL-17Rc-ACT1-NFκB-Luc cells.
Sequence of UniProt Q96F46 (Q96F46 33-866 limits assumed, chain 1 of 2): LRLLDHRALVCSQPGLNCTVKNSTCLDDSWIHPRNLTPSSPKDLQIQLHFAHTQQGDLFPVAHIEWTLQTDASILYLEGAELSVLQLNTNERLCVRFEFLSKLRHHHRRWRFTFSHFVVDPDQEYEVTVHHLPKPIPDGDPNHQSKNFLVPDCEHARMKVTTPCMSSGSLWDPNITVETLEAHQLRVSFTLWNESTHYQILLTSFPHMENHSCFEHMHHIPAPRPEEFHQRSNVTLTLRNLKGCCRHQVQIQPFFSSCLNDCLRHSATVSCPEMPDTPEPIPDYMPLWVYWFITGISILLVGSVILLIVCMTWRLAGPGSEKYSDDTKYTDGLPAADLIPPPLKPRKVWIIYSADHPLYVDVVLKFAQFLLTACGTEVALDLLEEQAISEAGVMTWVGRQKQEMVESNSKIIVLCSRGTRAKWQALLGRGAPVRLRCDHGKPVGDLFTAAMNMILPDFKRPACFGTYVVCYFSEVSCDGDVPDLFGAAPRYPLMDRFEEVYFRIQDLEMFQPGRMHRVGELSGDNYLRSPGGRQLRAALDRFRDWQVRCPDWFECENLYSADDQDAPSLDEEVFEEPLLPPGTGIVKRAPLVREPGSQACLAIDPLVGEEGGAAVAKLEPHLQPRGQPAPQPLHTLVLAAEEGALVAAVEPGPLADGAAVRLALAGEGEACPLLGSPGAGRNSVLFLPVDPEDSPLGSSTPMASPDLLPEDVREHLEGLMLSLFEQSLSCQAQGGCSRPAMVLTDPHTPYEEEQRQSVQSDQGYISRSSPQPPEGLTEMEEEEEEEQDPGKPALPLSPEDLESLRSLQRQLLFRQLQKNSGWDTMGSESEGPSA
Sequence of UniProt Q96F46 (chain, as listed by the source limits assumed, chain 2 of 2): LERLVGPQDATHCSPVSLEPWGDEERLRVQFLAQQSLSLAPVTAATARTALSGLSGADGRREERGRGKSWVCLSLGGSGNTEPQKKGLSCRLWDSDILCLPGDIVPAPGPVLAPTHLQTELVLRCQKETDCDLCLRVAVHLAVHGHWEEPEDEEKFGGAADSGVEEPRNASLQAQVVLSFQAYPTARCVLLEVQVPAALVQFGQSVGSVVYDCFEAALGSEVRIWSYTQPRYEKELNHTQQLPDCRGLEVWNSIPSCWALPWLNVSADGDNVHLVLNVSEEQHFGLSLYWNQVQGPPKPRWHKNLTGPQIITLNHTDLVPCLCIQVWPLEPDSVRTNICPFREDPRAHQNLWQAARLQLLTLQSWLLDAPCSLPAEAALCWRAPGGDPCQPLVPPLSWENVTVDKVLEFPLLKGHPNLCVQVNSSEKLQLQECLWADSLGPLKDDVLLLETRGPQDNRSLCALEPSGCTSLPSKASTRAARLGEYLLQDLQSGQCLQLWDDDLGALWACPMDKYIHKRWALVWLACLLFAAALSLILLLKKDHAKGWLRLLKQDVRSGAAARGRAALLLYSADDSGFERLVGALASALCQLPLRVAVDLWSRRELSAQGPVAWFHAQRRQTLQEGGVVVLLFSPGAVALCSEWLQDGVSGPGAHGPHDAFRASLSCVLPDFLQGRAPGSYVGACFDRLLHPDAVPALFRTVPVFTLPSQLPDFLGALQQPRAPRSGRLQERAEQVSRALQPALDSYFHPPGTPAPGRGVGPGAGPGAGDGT

Turning to “Human IL-17A重组蛋白 (C-terminal 6xHis) (from UniProt Q16552 24-155) (ligand)”, the 阳性率 is > 90 %.
